Starred links: 1 amine or outer side, 2 acyl side, 3 side chain; linkers in the order of their positions; H or OH if unused. Positions of bridges follow the written chain, without caps; N, C: chain ends. Non-standard residues stand in square brackets, D forms with d. Primed or numbered codes have the meaning given here. B5(4) = 2,2-bis(4-pentenyl)glycine = 2-amino-2-(pent-4-en-1-yl)hept-6-enoic acid (stitching residue), C=CCCCC(CCCC=C)(N[*:1])C(=O)[*:2]; B5(5) = 2,2-bis(4-pentenyl)glycine, 2-amino-2-(pent-4-en-1-yl)hept-6-enoic acid (stitching residue), C=CCCCC(CCCC=C)(N[*:1])C(=O)[*:2]; PyrS″ = (S)-1-((allyloxy)carbonyl)-3-aminopyrrolidine-3-carboxylic acid (stapling residue), C=CCOC(=O)N1CC[C@@](N[*:1])(C(=O)[*:2])C1; PyrS = (S)-1-((allyloxy)carbonyl)-3-aminopyrrolidine-3-carboxylic acid, C=CCOC(=O)N1CC[C@@](N[*:1])(C(=O)[*:2])C1; B5(3) = 2,2-bis(4-pentenyl)glycine (stitching residue), C=CCCCC(CCCC=C)(N[*:1])C(=O)[*:2]; B5 = 2-amino-2-(pent-4-en-1-yl)hept-6-enoic acid, C=CCCCC(CCCC=C)(N[*:1])C(=O)[*:2]; Phe(3-CF3) = N[C@@H](Cc1cccc(C(F)(F)F)c1)C(=O)O; Phe(4-CF3) = N[C@@H](Cc1ccc(C(F)(F)F)cc1)C(=O)O; Phe(F5) = N[C@@H](Cc1c(F)c(F)c(F)c(F)c1F)C(=O)O; Phe(4-COOH) = N[C@@H](Cc1ccc(C(=O)O)cc1)C(=O)O; 2Nal = N[C@@H](Cc1ccc2ccccc2c1)C(=O)O; αAllylPro = C=CC[C@@]1(C(=O)O)CCCN1; d(αMeL) = CC(C)C[C@@](C)(N)C(=O)O; 4Pal = N[C@@H](Cc1ccncc1)C(=O)O; R8 = C=CCCCCCC[C@@](C)(N)C(=O)O; S8 = C=CCCCCCC[C@](C)(N)C(=O)O

Sequences and labels used below:
T1: full-length beta-Catenin (Uniprot ID P35222) (Homo sapiens (Human), UniProt P35222 2-781)
T1 construct: The AlphaScreen assay used a Histidine (Nickel Chelate) detection kit, so a His tag is likely, but no tag is described; also called B-Catenin; bCat
T1 sequence: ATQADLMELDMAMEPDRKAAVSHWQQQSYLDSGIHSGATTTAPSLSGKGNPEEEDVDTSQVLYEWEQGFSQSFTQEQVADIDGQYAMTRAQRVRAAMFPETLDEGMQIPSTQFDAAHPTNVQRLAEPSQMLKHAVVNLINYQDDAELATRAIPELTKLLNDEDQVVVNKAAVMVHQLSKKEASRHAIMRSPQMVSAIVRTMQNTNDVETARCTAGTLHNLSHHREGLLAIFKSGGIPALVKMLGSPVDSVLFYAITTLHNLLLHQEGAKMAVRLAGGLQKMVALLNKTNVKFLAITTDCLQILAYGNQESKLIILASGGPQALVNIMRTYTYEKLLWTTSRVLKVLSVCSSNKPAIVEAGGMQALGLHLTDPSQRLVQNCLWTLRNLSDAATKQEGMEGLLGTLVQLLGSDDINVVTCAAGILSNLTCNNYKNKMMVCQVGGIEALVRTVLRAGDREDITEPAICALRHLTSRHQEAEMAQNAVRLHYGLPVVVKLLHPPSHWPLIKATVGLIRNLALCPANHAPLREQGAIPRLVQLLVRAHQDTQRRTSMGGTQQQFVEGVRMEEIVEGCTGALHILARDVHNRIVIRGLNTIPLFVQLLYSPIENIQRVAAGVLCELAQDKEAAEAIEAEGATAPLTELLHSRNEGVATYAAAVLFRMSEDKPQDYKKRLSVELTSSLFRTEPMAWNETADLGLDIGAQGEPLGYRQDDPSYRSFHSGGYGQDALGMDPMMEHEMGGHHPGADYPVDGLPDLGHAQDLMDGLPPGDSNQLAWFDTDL

T2: full-length beta-Catenin (Uniprot ID P35222) (Homo sapiens (Human), UniProt P35222 2-781)
T2 construct: also called B-Catenin; bCat
T2 sequence: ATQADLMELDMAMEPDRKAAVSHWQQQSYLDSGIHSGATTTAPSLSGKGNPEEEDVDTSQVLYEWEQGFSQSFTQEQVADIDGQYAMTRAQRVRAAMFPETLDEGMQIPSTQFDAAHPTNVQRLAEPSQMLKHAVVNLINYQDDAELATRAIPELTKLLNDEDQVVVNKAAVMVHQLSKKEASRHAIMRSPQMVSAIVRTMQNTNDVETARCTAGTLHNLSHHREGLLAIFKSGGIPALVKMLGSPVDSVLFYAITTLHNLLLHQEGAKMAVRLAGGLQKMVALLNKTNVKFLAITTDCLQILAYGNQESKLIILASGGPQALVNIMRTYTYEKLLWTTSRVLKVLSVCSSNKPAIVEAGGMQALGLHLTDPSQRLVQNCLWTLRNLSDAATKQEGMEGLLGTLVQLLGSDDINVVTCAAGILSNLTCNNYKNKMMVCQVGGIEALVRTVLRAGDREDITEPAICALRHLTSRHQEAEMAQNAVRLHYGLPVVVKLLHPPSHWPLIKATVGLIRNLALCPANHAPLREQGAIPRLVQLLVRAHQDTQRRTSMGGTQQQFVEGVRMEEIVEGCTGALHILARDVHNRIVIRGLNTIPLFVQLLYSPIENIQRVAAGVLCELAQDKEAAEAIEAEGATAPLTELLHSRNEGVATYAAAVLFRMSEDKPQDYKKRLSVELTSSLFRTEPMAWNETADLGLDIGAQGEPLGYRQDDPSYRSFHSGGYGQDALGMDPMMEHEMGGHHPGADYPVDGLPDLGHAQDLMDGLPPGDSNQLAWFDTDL

B1: I-236 (peptide)
peptide: Ac-[αAllylPro]DA[B5(3)]DDAA[Phe(3-CF3)]V[S8]FWQ-NH2
modifications: staple 1-4, 4-11
notes: Stapled peptide composition; also called Ac-PL3-Asp-Ala-B5-Asp-Asp-Ala-Ala-3F3MeF-Val-S8-Phe-Trp-Gln-NH2
B2: I-245 (peptide)
peptide: Ac-[αAllylPro]DA[B5(4)]D[Phe(3-CF3)]AAFV[S8]FWQ-NH2
modifications: staple 1-4, 4-11
notes: Stapled peptide composition; also called Ac-PL3-Asp-Ala-B5-Asp-3F3MeF-Ala-Ala-Phe-Val-S8-Phe-Trp-Gln-NH2
B3: I-247 (peptide)
peptide: Ac-[αAllylPro]DA[B5(4)]D[Phe(4-CF3)]AAFV[S8]FWQ-NH2
modifications: staple 1-4, 4-11
notes: Stapled peptide composition; also called Ac-PL3-Asp-Ala-B5-Asp-4F3MeF-Ala-Ala-Phe-Val-S8-Phe-Trp-Gln-NH2
B4: I-233 (peptide)
peptide: Ac-[αAllylPro]DA[B5(3)]DWAAFV[S8]FWQ-NH2
modifications: staple 1-4, 4-11
notes: Stapled peptide composition; also called Ac-PL3-Asp-Ala-B5-Asp-Trp-Ala-Ala-Phe-Val-S8-Phe-Trp-Gln-NH2
B5: I-244 (peptide)
peptide: Ac-[αAllylPro]DA[B5(5)]D[Phe(3-CF3)]AAFV[S8]FWQ-NH2
modifications: staple 1-4, 4-11
notes: as for B2
B6: I-246 (peptide)
peptide: Ac-[αAllylPro]DA[B5(4)]D[Phe(4-CF3)]AAFV[S8]FWQ-NH2
modifications: staple 1-4, 4-11
notes: as for B3
B7: I-221 (peptide)
peptide: Ac-FDA[R8]DDAAFT[PyrS]FWQ-NH2
modifications: staple 4-11
notes: Stapled peptide composition; also called Ac-Phe-Asp-Ala-R8-Asp-Asp-Ala-Ala-Phe-Thr-PyrS-Phe-Trp-Gln-NH2
B8: I-227 (peptide)
peptide: Ac-FDA[R8]DDAAFV[PyrS″][Phe(F5)]WQ-NH2
modifications: staple 4-11
notes: Stapled peptide composition; also called Ac-Phe-Asp-Ala-R8-Asp-Asp-Ala-Ala-Phe-Val-PyrS-Pff-Trp-Gln-NH2
B9: I-226 (peptide)
peptide: Ac-FDA[R8]DDAAFV[PyrS″][Phe(F5)]WQ-NH2
modifications: staple 4-11
notes: as for B8
B10: I-225 (peptide)
peptide: Ac-FDA[R8]DDAAFV[PyrS][Phe(F5)]WQ-NH2
modifications: staple 4-11
notes: as for B8
B11: I-228 (peptide)
peptide: Ac-FDA[R8]DDAAFV[PyrS][Phe(F5)]WQ-NH2
modifications: staple 4-11
notes: as for B8
B12: I-215 (peptide)
peptide: Ac-[αAllylPro]DA[B5]D[d(αMeL)]AAFV[S8]FWQ-NH2
modifications: staple 1-4, 4-11
notes: Stapled peptide composition; also called Ac-PL3-Asp-Ala-B5-Asp-DaMeL-Ala-Ala-Phe-Val-S8-Phe-Trp-Gln-NH2
B13: I-216 (peptide)
peptide: Ac-[αAllylPro]DA[B5(4)]D[d(αMeL)]AAFV[S8]FWQ-NH2
modifications: staple 1-4, 4-11
notes: as for B12
B14: I-214 (peptide)
peptide: Ac-[αAllylPro]DA[B5][4Pal]EAAFV[S8]FWQ-NH2
modifications: staple 1-4, 4-11
notes: Stapled (stitched) peptide composition; also called Ac-PL3-Asp-Ala-B5-4pyrA-Glu-Ala-Ala-Phe-Val-S8-Phe-Trp-Gln-NH2
B15: I-110 (peptide)
peptide: Ac-FDA[R8]DDAAFV[PyrS″][Phe(4-COOH)]WQ-NH2
modifications: staple 4-11; not fully specified; printed as Ac-Phe-Asp-Ala-R8-Asp-Asp-Ala-Ala-Phe-Val-PyrS-4COOHF-Trp-Gln-NH2
notes: Stapled peptide composition
B16: I-111 (peptide)
peptide: Ac-FDA[R8]DDAAFV[PyrS″][Phe(4-COOH)]WQ-NH2
modifications: staple 4-11
notes: Stapled peptide composition; same description as I-110, separate later-eluting HPLC peak (staple isomer)

In one assay the target is T1, full-length beta-Catenin (Uniprot ID …). Nature of the assay: AlphaScreen competition: full-length beta-catenin + biotin-TCF4(10-53) probe, peptide titrated. As to the method: (§1) Equal volume of the titrated peptide was added to the plate and incubated for 15 minutes at 20° C. Then 4 uL of donor and 4 uL acceptor beads at 10 ug/mL were added to the plate, for a 16 uL reaction pool and protected from light for 60 minutes at 20° C. prior to read. Reads were performed on a CLARIOstar plate reader (BMG Labtech) in duplicate, and data were fitted to a 1:1 binding model with hill slope using an in-house script. All provided concentrations are final concentrations.
For the molecule B1, the EC50 amounted to 0.384 µM.

Regarding B2, the EC50 is 2.96 µM.

On to B3, for which the EC50 turned out to be 3.97 µM.

Consider B4, for which the EC50 was 5.9 µM.

On to B5, for which the EC50 is 2.96 µM.

Regarding B6, the EC50 amounted to 3.97 µM.

Take B7: the EC50 was 6.58 µM.

Consider B8, for which the EC50 was 5.91 µM.

Consider B9, for which the EC50 was 7.63 µM.

Regarding B10, the concentration for a half-maximal effect (EC50) was 7.63 µM.

For B11, the EC50 worked out at 5.91 µM.

With B12, the EC50 was not below 10 µM.

For B13, the EC50 was not below 10 µM.

As to B14, the EC50 came to 7.21 µM.

The target of another assay is T2, full-length beta-Catenin (Uniprot ID …). Nature of the assay: Alphascreen competition; biotin-TCF4(10-53) probe with full-length beta-catenin. Here is the method: as §1
In the case of B15, the EC50 worked out at 8.5 µM.

For the molecule Ac-FDA[R8]D[2Nal]AAFV[PyrS″]FWQ-NH2 (staple 4-11; also: later-eluting HPLC peak (staple isomer), Stapled peptide composition) [I-116], the EC50 worked out at 3.64 µM.

The molecule B16 registered an EC50 of 7.64 µM.

Values taken from patent US20240116985A1 (published 2024).
